Here are results for one molecule from patent US20210130436A1 (published 2021).

Assay [1] has as its target T1, human CTLA-4, full-length, on transduced CHO cells (human, UniProt P16410 36-223).
T1 construct: Full-length surface expression construct transduced into CHO cells by lentivirus; also called huCTLA4
Description: flow cytometry MFI on CHO/huCTLA4 relative to WT CD80 ECD-Fc (R&D).

Assay [2] addresses T2, human CD28, endogenous on Jurkat/IL2 reporter cells (human, UniProt P10747 19-220).
T2 construct: Endogenously expressed on Jurkat/IL2 reporter cells
Briefly: flow cytometry MFI on Jurkat (CD28) relative to WT CD80 ECD-Fc (R&D). In general terms: A flow cytometer gives signals particle by particle.

Assay [3] deals with T3, human PD-L1, full-length, on transduced CHO cells (human, UniProt Q9NZQ7 19-290).
T3 construct: Full-length surface expression construct transduced into CHO cells by lentivirus; also called huPD-L1; CD274
T3 sequence (Q9NZQ7 19-290): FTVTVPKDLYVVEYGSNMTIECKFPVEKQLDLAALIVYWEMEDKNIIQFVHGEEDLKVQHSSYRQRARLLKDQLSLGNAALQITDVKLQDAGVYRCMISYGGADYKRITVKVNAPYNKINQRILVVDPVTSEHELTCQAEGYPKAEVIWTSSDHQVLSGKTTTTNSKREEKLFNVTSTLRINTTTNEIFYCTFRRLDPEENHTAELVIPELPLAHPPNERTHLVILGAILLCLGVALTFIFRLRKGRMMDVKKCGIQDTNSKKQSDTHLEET
Briefly: flow cytometry MFI on CHO/huPD-L1 relative to WT CD80 ECD-Fc (R&D).

The target of assay [4] is T3, human PD-L1, full-length, on transduced …. Briefly: flow cytometry; binding to CHO/huPD-L1 compared to binding to Jurkat (CD28).

T1 sequence (P16410 36-223): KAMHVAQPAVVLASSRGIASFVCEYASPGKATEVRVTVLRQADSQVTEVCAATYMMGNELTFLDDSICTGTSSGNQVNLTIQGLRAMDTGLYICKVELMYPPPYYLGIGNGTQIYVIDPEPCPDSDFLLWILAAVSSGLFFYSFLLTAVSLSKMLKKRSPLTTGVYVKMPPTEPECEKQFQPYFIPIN

B1: variant CD80 IgV-Fc E35D/M47V/A71G (Fc fusion, not shown: a dimerising Fc or GST)
chain: VIHVTKEVKEVATLSCGHNVSVEELAQTRIYWQKDKKMVLTMMSGDVNIWPEYKNRTIFDITNNLSIVILGLRPSDEGTYECVVLKYEKDAFKREHLAEVTLSVKAD
B1: the “Fold change to WT CD80” value came to 1.44 fold in assay [1], 0.35 fold in assay [2] and 3.05 fold in assay [3]. Further, in assay [4], the “Ratio of PDL1:CD28” value amounted to 6 ratio.
